Source: the supplement of paper PMC10567573
± gives the standard deviation.

Test: protein stability index of a GFP-peptide fusion (GPS, HEK-293T) (PSI 1-6); higher = more stable
[1] = treatment: DMSO, c terminus: a fixed tail appended
[2] = treatment: MLN4924 1 uM, 8 h, c terminus: a fixed tail appended
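Also: 24-mer peptide tiles fused after GFP, lentivirally expressed, FACS-sorted into six equal bins by GFP/DsRed ratio, decoded by Illumina sequencing, PSI is the read-weighted mean bin number.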

Sequence	protein stability index [1]	protein stability index [2]	protein stability index (treatment: DMSO, c terminus: native)	protein stability index (treatment: MLN4924 1 uM, 8 h, c terminus: native)
VRFDGYVIDGATALWCAAGAGHFE [FEM1B]	2.91 ± 0.6	2.92 ± 0.64		
GTLDNSKSMKPYNYCSAYESFYES [NEUROD6]	3.02 ± 0.41	3.12 ± 0.35		
HHKVYDLTKFLEEHPGGEEVLREQ [CYB5A]	4.44 ± 0.27	4.65 ± 0.19		
ATDGARPQALPEPMQESKAEGNNQ [CHGA]	5.67 ± 0.18	5.76 ± 0.11		
GLGRPTPGLSQGPGKETLESALIA [EHMT1]	3.95 ± 0.13	4.29 ± 0.22		
IYHLDGQETPYLVKLPLPAERVTL [DVL3]	2.28 ± 0.24	2.34 ± 0.26		
GSKYYNVEAMYCYLRCIQSEVSFE [SMG5]	3.05 ± 0.94	2.1 ± 0.68		
VGDALEEVLSKALSQRTITVGVYE [GADD45A]	2.54 ± 0.19	2.47 ± 0.56		
FQSISLRKIQFNFPYFRSDRDKRD [CLCN6]	2.3 ± 0.34	2.75 ± 0.52		
EFLTKHLRADNAFMLLTQARLFDE [BTBD1]	2.54 ± 0.25	2.18 ± 0.36		
SKDNMRTRIMIGLTLVFFVQITGQ [SLC2A12]	2.55 ± 0.6	3.4 ± 0.17		
QLDKNSEVYQEVQAMFDTLGIPKS [FAM98B]	3.11 ± 0.69	3.66 ± 0.59		
FRGRRDVSGSWERDQQVEAAQRAL [RETREG3]	4.48 ± 0.27	4.28 ± 0.23		
ETTSQQERLQAIAEKRKRQAEIEN [PALM]	4.94 ± 0.14	5.06 ± 0.12		
DDVIVQGDIQELYDTTLALGHAAA [GLT8D2]	4.47 ± 0.39	4.42 ± 0.088		
LAMKIKVGSDDLERIEARLATLEG [PSD2]	2.79 ± 0.42	2.85 ± 0.49		
LVETAIQSLDEPGGATFLLTAKQL [TRIM63]	2.75 ± 0.14	2.66 ± 0.45		
KKVHKGTVPKNDADDESETPEELE [GLT8D2]	5.49 ± 0.27	5.65 ± 0.093		
IASIGRHRYIAYMANQEAAIQAFL [IQUB]	2.39 ± 0.73	2.17 ± 0.36		
ACCGGFLEVADFLIKAGADIELGC [ANKRD17]		3.05 ± 1.1		
QIMKEGKATASEAVDCKWYIRAPP [NETO1]	3.24 ± 0.086	3.24 ± 0.2		
VGSVSVDCGPSRADRCSPKEDQAW [FBXO34]	3.66 ± 0.25	4.06 ± 0.33		
MELPSGPGPERLFDSHRLPGDCFL [AUP1]	3.36 ± 0.36	3.27 ± 0.35		

Sequence	protein stability index [1]	protein stability index [2]	protein stability index (treatment: DMSO, c terminus: native)	protein stability index (treatment: MLN4924 1 uM, 8 h, c terminus: native)
LEEVERAILEMKWKVRAEKEACQR [ZBED2]	3.87 ± 0.18	3.76 ± 0.21		
HSHPPEIKDQGGAGEGLVRSANGF [MAP2]	4.7 ± 0.14	4.76 ± 0.2		
QLSTPHAVGVLLLGLVGYYIFRVA [DHCR7]	2.91 ± 0.44	2.94 ± 0.35		
MSYFGEHFWGEKNHGFEVLYHSVK [FCHO1]	2.59 ± 0.24	2.11 ± 0.16		
VPHWINSNTLGFGTEQAPYGMQTQ [ETS2]	2.58 ± 0.41	2.88 ± 0.22		
DFALINKLDIQCDLKTLSDDIKES [ATE1]	4.15 ± 0.14	4.18 ± 0.39		
AMALTSSMNWGINLLISLTFLTVT [SLC2A12]	3.14 ± 0.36	3.32 ± 0.33		
HIDPDVLYPSLNVTSFDSVVPEKL [ALG2]	3.83 ± 0.25	3.91 ± 0.21		
LELDDNLDTERPVQKRARSGPQPR [TRIB3]	4.9 ± 0.38	5.11 ± 0.18		
DGKLRLLTKLLASKSKEEVSSLIS [FEM1C]	2.33 ± 0.28	1.92 ± 0.39		
VKMFYSFQDKRNLYLIMEFLPGGD [STK38L]	3.11 ± 0.85	3.29 ± 0.4		
QAHGSEGLTFQGLLPLTELSVCPL [PLEKHN1]	3.08 ± 0.29	3.05 ± 0.19		
QMPPVIVETARSHQRSSSESYTQS [PI4K2A]	4.6 ± 0.28	4.72 ± 0.16		
QRQAPGPARDYSQYYRTIEELQNK [KRT17]	4.07 ± 0.15	4.12 ± 0.063		
RSPLVSGDESSLLLNAASTVARPV [RHOBTB3]	4.31 ± 0.17	4.25 ± 0.26		
NAESSKTWLKGKFTELRLLLDEEE [TRIM14]	4.14 ± 0.34	4.41 ± 0.47		
DFYRCGYCKNESGSRSNGMWAHSM [ATE1]	2.56 ± 0.59	2.2 ± 0.13		
GYRQQKAYIATQGPLAETTEDFWR [PTPRD]	3.28 ± 0.22	3.36 ± 0.42		
TFKSLSHIDPDVLYPSLNVTSFDS [ALG2]	2.77 ± 0.14	2.92 ± 0.19		
QAKQEMNESRRQIQSLTCEVDGLR [PRPH]	4.55 ± 0.37	4.78 ± 0.18		
CGKSFTQSSGLIRHQRIHTGERPY [ZSCAN9]	2.14 ± 0.034	2.25 ± 0.21		
IVKKPKSMQCKVILLDGSEYTCDV [EPB41L3]	1.93 ± 0.24	2.23 ± 0.69		
PSPDMECADVPLLTPSSKEMMSQA [ETS1]	5.15 ± 0.25	5.2 ± 0.11		

Sequence	protein stability index [1]	protein stability index [2]	protein stability index (treatment: DMSO, c terminus: native)	protein stability index (treatment: MLN4924 1 uM, 8 h, c terminus: native)
ARWRRLRLQQLRRLRGLLRVLRGR [FBXO33]	3.52 ± 0.39	3.95 ± 0.65		
NKRCKDKKKSILMKQLQQQQHSDK [ISL2]	4.45 ± 0.18	4.5 ± 0.12		
REFSFTLKDDIYIRYQSFNNQSDL [PRIM1]	2.26 ± 0.084	2.22 ± 0.41		
SPGLSYASHTVGFTPPTSLTRAGM [CCDC6]	3.01 ± 0.12	3.37 ± 0.31		
LANLSRTQLLHLGLTQGLIERLK [KLHDC10]			2.38 ± 0.53	2.35 ± 0.18
MAAEIQPKPLTRKPILLQRMEGSQ [WDFY2]	4.05 ± 0.27	3.8 ± 0.38		
RFRSCNTEDCPTGSALTFREEQCA [ADAMTS4]	3.75 ± 0.3	4.24 ± 0.27		
EQLSVLASCLQELFKAHFRGEVLP [INTS3]	2.52 ± 0.42	2.5 ± 1.1		
ACGLGGGYGGGFSSSSSFGSGFGG [KRT16]	2.17 ± 0.27	2.29 ± 0.25		
GCQVSPEGYAHLTHLLMGLASGRI [HDAC6]	2.46 ± 0.89	2.57 ± 0.53		
DYPVQVAPLSNGLCCAFSTDGSVL [WSB1]	2.66 ± 0.27	2.96 ± 0.32		
QDTEVFSWSDNERSSSRINIPERA [FAM104B]	4.62 ± 0.094	4.53 ± 0.067		
IGSVEEQLAQLRCEMEQQSQEYQI [KRT16]	4.82 ± 0.15	4.85 ± 0.18		
FFEILRLFFPVIYDVKYLMKSCKN [CNOT7]	2.37 ± 0.9	2.87 ± 0.048		
LSLESEGAGEGAAASPELSALEEA [TPPP]	5.52 ± 0.17	5.58 ± 0.17		
HGVELHSDVIEYAKQKLDFFIRTS [PCMTD2]	2.37 ± 0.2	2.48 ± 0.29		
PLPWSECPVVRNGSVAVVEAECEK [SLC6A17]	5.443 ± 0.034	5.3 ± 0.29		
YSSQLSQVQSLITNVESQLAEIRC [KRT34]	3.07 ± 0.21	3.24 ± 0.24		
SGNMLGRHFFTSWASCLQYDFDTQ [WDFY1]	2.47 ± 0.53	2.11 ± 0.12		
NLQELLELDSSSSLCVLVSTVGKL [CEP70]	2.29 ± 0.49	2.43 ± 0.47		
APSLRRHVLIHNTLQQLQAALRLA [SERTAD3]	2.21 ± 0.33	2.29 ± 0.13		
SWIQLPPMQERRASFYACRLDKHL [KLHL14]	2.32 ± 0.29	2.26 ± 0.34		
LRLADEFGVAVVITNQVVAQVDGA [RAD51]	2.31 ± 0.52	2.1 ± 0.39		

Sequence	protein stability index [1]	protein stability index [2]	protein stability index (treatment: DMSO, c terminus: native)	protein stability index (treatment: MLN4924 1 uM, 8 h, c terminus: native)
CIELYFDEKYSIEPSWECKFDHIE [NETO1]	2.13 ± 0.42	2.24 ± 0.25		
ILVVTVQLILFGLSNQLAVTFREE [MCOLN1]	3.02 ± 0.39	3.05 ± 0.23		
KREACHCEEVKMTVASEAKIQLSD [FAN1]	4.76 ± 0.19	5 ± 0.18		
RAGKMLMTLPLLRQTSTKAVQHFY [ESRRG]	2.28 ± 0.31	2.16 ± 0.37		
MLQEQLDAINEEIRMIQEEKESTE [PPFIA4]	4.75 ± 0.41	4.84 ± 0.11		
QSFGVASASSIKQILLEWCRSKTL [SMTNL2]	2.41 ± 0.27	2.15 ± 0.39		
QKQLEQTLQQFNIKLRPPGAEKPS [ARFIP2]	3.92 ± 0.098	4.07 ± 0.19		
EAPALPAPAAPMVSKGAESSRSSE [BRD3]	5.56 ± 0.32	5.73 ± 0.25		
SSAAMQSSCSSTSGGGGGGGGGGG [CCDC6]	5.2 ± 0.49	5.16 ± 0.19		
YSSSKGSLRLCDMRAAALCDKHSK [PPP2R2C]	2.53 ± 0.8	3.11 ± 0.71		
MKSYSFLREAVPGILRARRGEGIQ [SOAT2]	2.54 ± 0.2	2.77 ± 0.39		
GREEKCVWKHGITPPLKNVRKKRF [TAF7L]	3.98 ± 0.34	4.03 ± 0.41		
QYPNPLPVLSGAELEKAHLALIDY [VPS39]	3.55 ± 0.24	3.58 ± 0.31		
FCSVIRINSTAPFEEQENYFLLCD [ZNF277]	2.46 ± 0.7	1.83 ± 0.15		
LAEIRCDLERQNQEYQVLLDVRAR [KRT34]	3.57 ± 0.17	3.59 ± 0.13		
QVEVDAQQCMLEILDTAGTEQFTA [RAP1B]	4.54 ± 0.12	4.59 ± 0.16		
DLEELSLGPRDAGTRGRLESAQAT [ARFIP2]	5.14 ± 0.083	5.06 ± 0.1		
EAQTSGKERLLLSAAVPAGQTYVD [CHIT1]	4.15 ± 0.41	4.3 ± 0.26		
TSPSPERSLLLKYARTPTLDPDTM [TRIM14]	3.89 ± 0.66	4.29 ± 0.32		
MANQEAAIQAFLDKCSAPKIWRTP [IQUB]	3.11 ± 0.14	3.16 ± 0.34		
